Each block holds one molecule with its values, some of them ahead of it.
Assays:
Assay in all cases: fluorescence polarisation
[1] = biological target: GLhelix-4 with Trp 534 mutated to alanine (UniProt O08773)
[2] = biological target: GLhelix-4, redesigned RGS14 GoLoco motif peptide (UniProt O08773)
[3] = biological target: heterotrimeric G-protein alpha subunit Gαi1 in its inactive, GDP-complexed state (UniProt P63096 30-354)
Sequence of heterotrimeric G-protein alpha subunit Gαi1 in its inactive, GDP-complexed state (UniProt P63096 30-354) (P63096 30-354, one chain of several): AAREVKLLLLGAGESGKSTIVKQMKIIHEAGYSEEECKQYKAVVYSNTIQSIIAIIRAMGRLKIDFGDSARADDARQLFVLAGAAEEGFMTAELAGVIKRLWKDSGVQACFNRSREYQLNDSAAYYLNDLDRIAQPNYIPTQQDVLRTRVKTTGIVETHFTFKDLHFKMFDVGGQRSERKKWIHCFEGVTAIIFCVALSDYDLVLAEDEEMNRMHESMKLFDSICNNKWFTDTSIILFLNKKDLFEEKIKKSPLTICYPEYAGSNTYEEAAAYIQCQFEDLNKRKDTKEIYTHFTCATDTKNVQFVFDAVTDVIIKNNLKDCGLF

- Kd [1]: 1400 nM
- Kd [2]: 810 nM
Molecule: heterotrimeric G-protein alpha subunit Gαi1 in its inactive, GDP-complexed state (from UniProt P63096 30-354) (natural protein)

- Kd [3]: 95 nM
B1: RGS14 GoLoco motif peptide (wildtype, 36 residues) (peptide)
peptide: DIEGLVELLNRVQSSGAHDQRGLLRKEDLVLPEFLQ

Source: publication PMC3081598 (Journal of the American Chemical Society, 2011)
